Assay results taken from patent publication US20150044246A1 (IMMATICS BIOTECHNOLOGIES, published 2015).

B1: SVASTITGV from adipophilin (peptide)
peptide: SVASTITGV
notes: MHC class I ligand eluted from renal cell carcinoma tissue; also called adipophilin peptide; ADFP peptide
B2: YVDPVITSI derived from met proto-oncogene (peptide)
peptide: YVDPVITSI
notes: MHC class I ligand eluted from renal cell carcinoma tissue; also called met-proto-oncogene peptide
B3: ALLNIKVKL derived from keratin 18 (peptide)
peptide: ALLNIKVKL
notes: MHC class I ligand eluted from renal cell carcinoma tissue and identified by mass spectrometry; also called keratin 18 peptide; keratin 18-peptide

Target: T1, HLA-A*0201 (recombinant, refolded with peptide for tetramer production) (human)
T1 construct: Monomers were biotinylated; also called HLA-A2
Assay: reconstitution of HLA-A*0201 tetramers with peptide

Binding result, binds:
B1, B2, B3
